Results as given in patent US20230090247A1, “MOLECULES TARGETING RAS PROTEIN” (AELIN THERAPEUTICS, priority 2020, published 2023).
Square brackets hold non-standard residues; d marks the D form. Peptide text beside a SMILES is read from it. Dap = NC[C@H](N)C(=O)O

Assays:
[1] = system: NCI-H441 lung adenocarcinoma cells (suspension spheroid cultures); assay type: cell-based, human
[2] = system: SW620 xenograft of human KRAS G12V mutant colorectal cancer; assay: In vivo SW620 xenograft model; parameters: species or system Female NCr nu/nu mice
Procedure: FIG. 12 illustrates that RAS-targeting pept-ins reduce tumor growth in a xenograft model of KRAS G12V mutant cancer. […] Pept-ins were dosed 3 times per week by intratumoral injection at either 20 or 200 μg once the tumors reached 100-150 mm^3. Model response was monitored by a positive control group receiving Irinotecan at 100 mg/kg, once per week for 3 weeks. Group sizes were N=6 for the non-treated group, N=5 for the vehicle groups and N=8 for the pept-in and positive control groups. Graphs show box plots of tumor volumes at day 22 after treatment started.
Female NCr nu/nu mice (8 to 12 weeks) were inoculated with 1×10^6 SW620 tumor cells in 50% Matrigel subcutaneously in the hind flank. The cell Injection Volume was 0.1 mL/mouse. When tumors reached an average size of 100-150 mm^3 a pair match was performed, and treatment started. Group sizes were N=6 for the non-treated group, N=5 for the vehicle groups and N=8 for the pept-in and positive control groups. Tumor growth was monitored by caliper measurement twice per week. Model response was monitored by Irinotecan dosed once per week at 100 mg/kg intraperitoneally for 3 weeks.
To assess whether the RAS-targeting pept-ins are able to attenuate growth of KRAS G12V-driven tumors in vivo, a subcutaneous xenograft model of human KRAS G12V colorectal cancer (SW620) was used. Once the tumors reached 100-150 mm^3 in size, pept-ins were administered directly into the tumor mass by intratumoral injection three times per week during two weeks at two different doses (20 μg and 200 μg).

[3] = biological target: T1, KRAS G12V (human, UniProt P01116-2 1-188, limits assumed); assay: cell-based or functional assay
[4] = biological target: T1, KRAS G12V; assay: cell-based or functional assay; remark: listed apart in the source
[5] = biological target: T1, KRAS G12V; assay: cell-based or functional assay; remark: listed apart in the source

CC(=O)N[C@@H](CCCCN)C(=O)N[C@H](C(=O)N[C@H](C(=O)N[C@H](C(=O)NCC(=O)N[C@@H](C)C(=O)N[C@H](C(=O)N[C@@H](CCCCN)C(=O)NCC(=O)N[C@@H](CO)C(=O)N[C@@H](C)C(=O)N[C@H](C(=O)N[C@H](C(=O)N[C@H](C(=O)NCC(=O)N[C@@H](C)C(=O)N[C@H](C(=O)N[C@@H](CCCCN)C(N)=O)C(C)C)C(C)C)C(C)C)C(C)C)C(C)C)C(C)C)C(C)C)C(C)C [04-006-N053]
IC50 [1]: 21.6 µM

CC(=O)N[C@@H](CCCCN)C(=O)N[C@H](C(=O)N[C@H](C(=O)N[C@H](C(=O)NCC(=O)N[C@@H](C)C(=O)N[C@H](C(=O)NCC(=O)N[C@@H](CCCCN)C(=O)NCC(=O)N[C@@H](CO)C(=O)N[C@@H](CCCCN)C(=O)N[C@H](C(=O)N[C@H](C(=O)N[C@H](C(=O)NCC(=O)N[C@@H](C)C(=O)N[C@H](C(=O)NCC(=O)N[C@@H](CCCCN)C(N)=O)C(C)C)C(C)C)C(C)C)C(C)C)C(C)C)C(C)C)C(C)C)C(C)C [04-015-N001]
average tumor volume at day 22 after treatment started ([2]; 20 μg intratumoral injection three times per week): significant reduction
average tumor volume at day 22 after treatment started ([2]; 200 μg intratumoral injection three times per week): significant reduction
reduction in tumor growth (comparison between pept-ins) ([2]; intratumoral, 20 μg and 200 μg): strongest reduction in tumor growth

CC(=O)N[C@@H](CCCCN)C(=O)N[C@H](C(=O)N[C@H](C(=O)N[C@H](C(=O)NCC(=O)N[C@@H](C)C(=O)N[C@H](C(=O)NCC(=O)N[C@@H](CCCCN)C(=O)NCC(=O)N[C@@H](Cc1ccccc1)C(=O)N[C@@H](CCCCN)C(=O)N[C@H](C(=O)N[C@H](C(=O)N[C@H](C(=O)NCC(=O)N[C@@H](C)C(=O)N[C@H](C(=O)NCC(=O)N[C@@H](CCCCN)C(N)=O)C(C)C)C(C)C)C(C)C)C(C)C)C(C)C)C(C)C)C(C)C)C(C)C [04-015-N063]
IC50 [1]: 38.7 µM

CC(=O)N[C@@H](CN)C(=O)N[C@H](C(=O)N[C@H](C(=O)N[C@H](C(=O)NCC(=O)N[C@@H](C)C(=O)N[C@H](C(=O)NCC(=O)N[C@H](C(=O)NCC(=O)N[C@@H](CCCCN)C(=O)NCC(=O)N[C@@H](CO)C(=O)N[C@@H](CCCCN)C(=O)N[C@@H](Cc1c[nH]c2ccccc12)C(=O)N[C@H](C(=O)NCC(=O)N[C@@H](C)C(=O)N[C@H](C(=O)NCC(=O)N[C@H](C(=O)NCC(=O)N[C@@H](CN)C(N)=O)C(C)C)C(C)C)C(C)C)C(C)C)C(C)C)C(C)C)C(C)C)C(C)C [04-033-N022] (Ac-[Dap]VVVGAVGVGKGSKWVGAVGVG[Dap]-NH2)
IC50 [1]: 5 µM

Ac-AVVVGAVAGSKVVVGAVK-NH2 [04-006-N082]
IC50 [1]: 18.2 µM

Ac-AVVVGAVKGSAVVVGAVK-NH2 [04-006-N060]
IC50 [1]: 31.7 µM

Ac-AVVVGAVKGSKVVVGAVK-NH2 [04-006-N044]
IC50 [1]: 5.3 µM

Ac-KLSVFAIKKLSVFAIK-NH2 [04-004-N016]
IC50 [1]: 45.9 µM

Ac-KLVVVGAVKGSKLVVVGAVK-NH2 [04-014-N001]
activity in the spheroid setting ([1]; 25 μM, 5 days of exposure): did not display activity

Ac-KVVVGAVAGSKVVVGAVK-NH2 [04-006-N050]
IC50 [1]: 5.7 µM

Ac-KVVVGAVGKFFKVVVGAVGK-NH2 [04-015-N064]
IC50 [1]: 48.9 µM

Ac-KVVVGAVGVGKKVVVGAVGVGK-NH2 [04-033-N007]
IC50 [1]: 13.1 µM

Ac-KVVVGAVKASKVVVGAVK-NH2 [04-006-N051]
IC50 [1]: 10.4 µM

Ac-KVVVGAVKGAKVVVGAVK-NH2 [04-006-N052]
IC50 [1]: 30.6 µM

Ac-KVVVGAVKGAKVVVGAVK-NH2 [pept-in 04-006-N052]
IC50 on cell viability, NCI-H441 suspension spheroids, CellTiter Glo 3D, 5 days [3]: 30.6 µM

Ac-AVVVGAVKGSKVVVGAVK-NH2 [pept-in 04-006-N044]
IC50 on cell viability, NCI-H441 suspension spheroids, CellTiter Glo 3D, 5 days [3]: 5.3 µM

Ac-KVVVGAVGKGFKVVVGAVGK-NH2 [pept-in 04-015-N063]
IC50 on cell viability, NCI-H441 suspension spheroids, CellTiter Glo 3D, 5 days [3]: 38.7 µM

Ac-KVVVGAVKGSKVVVGAVA-NH2 [pept-in 04-006-N059]
IC50 on cell viability, NCI-H441 suspension spheroids, CellTiter Glo 3D, 5 days [3]: 15.7 µM

Ac-KVVVGAVAGSKVVVGAVK-NH2 [pept-in 04-006-N050]
IC50 on cell viability, NCI-H441 suspension spheroids, CellTiter Glo 3D, 5 days [3]: 5.7 µM

Ac-KVVVGAVGVGKGSKVVVGAVGVGK-NH2 [pept-in 04-033-N001]
IC50 on viability of adherent NCI-H441 cells, CellTiter Glo, 3 days [4]: ~10 µM
decrease in viability of NCI-H441 suspension spheroids, 25 µM, 5 days, CellTiter Glo 3D [4]: ≥ 75%
Normalised viability NCI-H441 4 days of exposure to 25 µM (%) [5]: 5.2%

Ac-KVVVGAVGKFFKVVVGAVGK-NH2 [pept-in 04-015-N064]
IC50 on cell viability, NCI-H441 suspension spheroids, CellTiter Glo 3D, 5 days [3]: 48.9 µM

Ac-KLSVFAIKKLSVFAIK-NH2 [pept-in 04-004-N016]
IC50 on cell viability, NCI-H441 suspension spheroids, CellTiter Glo 3D, 5 days [3]: 45.9 µM

Ac-KVVVGAVKGSKVVVGAVK-NH2 [pept-in 04-006-N001]
IC50 on viability of adherent NCI-H441 cells, CellTiter Glo, 3 days [4]: ~10 µM
decrease in viability of NCI-H441 suspension spheroids, 25 µM, 5 days, CellTiter Glo 3D [4]: ≥ 75%
Normalised viability NCI-H441 4 days of exposure to 25 µM (%) [5]: 8.7%

Ac-KLSVFAIKGSKLSVFAIK-NH2 [pept-in 04-004-N001]
IC50 on viability of adherent NCI-H441 cells, CellTiter Glo, 3 days [4]: ~10 µM
decrease in viability of NCI-H441 suspension spheroids, 25 µM, 5 days, CellTiter Glo 3D [4]: 75%
Normalised viability NCI-H441 4 days of exposure to 25 µM (%) [5]: 6.1%

Ac-AVVVGAVKGSAVVVGAVK-NH2 [pept-in 04-006-N060]
IC50 on cell viability, NCI-H441 suspension spheroids, CellTiter Glo 3D, 5 days [3]: 31.7 µM

Ac-KVVVGAVKGSAVVVGAVK-NH2 [pept-in 04-006-N053]
IC50 on cell viability, NCI-H441 suspension spheroids, CellTiter Glo 3D, 5 days [3]: 21.6 µM

Ac-AVVVGAVAGSKVVVGAVK-NH2 [pept-in 04-006-N082]
IC50 on cell viability, NCI-H441 suspension spheroids, CellTiter Glo 3D, 5 days [3]: 18.2 µM

Ac-KVVVGAVGKGSKVVVGAVGK-NH2 [pept-in 04-015-N001]
IC50 on viability of adherent NCI-H441 cells, CellTiter Glo, 3 days [4]: ~10 µM
decrease in viability of NCI-H441 suspension spheroids, 25 µM, 5 days, CellTiter Glo 3D [4]: ≥ 75%
Normalised viability NCI-H441 4 days of exposure to 25 µM (%) [5]: 23.3%

Ac-KVVVGAVKASKVVVGAVK-NH2 [pept-in 04-006-N051]
IC50 on cell viability, NCI-H441 suspension spheroids, CellTiter Glo 3D, 5 days [3]: 10.4 µM

Ac-KVVVGAVGVGKKVVVGAVGVGK-NH2 [pept-in 04-033-N007]
IC50 on cell viability, NCI-H441 suspension spheroids, CellTiter Glo 3D, 5 days [3]: 13.1 µM

Ac-KLVVVGAVKGSKLVVVGAVK-NH2 [pept-in 04-014-N001]
IC50 on viability of adherent NCI-H441 cells, CellTiter Glo, 3 days [4]: ~10 µM
Normalised viability NCI-H441 4 days of exposure to 25 µM (%) [5]: 9.1%

Ac-KVVVGAVAGSKVVVGAVA-NH2 [pept-in 04-006-N066]
IC50 on cell viability, NCI-H441 suspension spheroids, CellTiter Glo 3D, 5 days [3]: 25.3 µM
